Test results: the supplement of paper PMC9170038

Tests used:
Details in all cases: FMN input: 0 or 200 uM; Eterna round: R93 (includes R88 designs)
MS2 coat protein [1] = assay: apparent KD of MS2 coat protein, switch ON state; designed switch direction (-1 OFF switch, 1 ON switch): 1; higher = weaker reporter binding
In short: (§1)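 With or without constant ligand, designed RNA switches in 100 mM Tris-HCl pH 7.5, 80 mM KCl and 4 mM MgCl2 were titrated with SNAP-549-labelled MS2 coat protein. Concentrations went up in twofold steps from 0.7 or 1.5 nM to 3 µM. The switches had been transcribed on-chip from Illumina sequencing clusters, and apparent KD is the per-design median of normalised cluster binding-curve fits.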

MS2 coat protein [2] = assay: apparent KD of MS2 coat protein, switch OFF state (with FMN for OFF switches, without FMN for ON switches); designed switch direction (-1 OFF switch, 1 ON switch): 1; higher = weaker reporter binding
In short: as §1

MS2 coat protein [3] = assay: apparent KD of MS2 coat protein, switch ON state; designed switch direction (-1 OFF switch, 1 ON switch): -1; higher = weaker reporter binding
In short: as §1

MS2 coat protein [4] = assay: apparent KD of MS2 coat protein, switch OFF state (with FMN for OFF switches, without FMN for ON switches); designed switch direction (-1 OFF switch, 1 ON switch): -1; higher = weaker reporter binding
In short: as §1

Row | Sequence | apparent KD of MS2 coat protein (MS2 coat protein [1]) [nM] | apparent KD of MS2 coat protein (MS2 coat protein [2]) [nM] | apparent KD of MS2 coat protein (MS2 coat protein [3]) [nM] | apparent KD of MS2 coat protein (MS2 coat protein [4]) [nM]
1 | CAGGGACAUGAGGAUCACCCAUGUGGGAUUAUGGGAGGAUAUACAAAGACGAGAGUCAGAGUAGAAGGCCUAGGAC [salish99-ss1-128] | 37.3 | 85.7 |  | 
2 | AAAAAACAAAGAGAGGAUAUCCUGAAAAAAACAUGAGGAUCACCCAUGUAAAGAAAUUUAAAAUGGGAGAAGGCUCUUUGAAAAA [Same State 2.6c ( Helter Skelter 1)] | 24.6 | 22.3 |  | 
3 | AACAAUCUAUCUGAGGAUAUCAUGUCAAAGACAUGAGGAUCACCCAUGUCUAGGAAAACUAGAUAUGAGAAGGCAGAUAGAUUGA [SS2 :P - 597] | 23.2 | 126 |  | 
4 | AUAAAAUAAAUUGAGGAUAUCUAUAAUAAAACAUGAGGAUCACCCAUGUUUAAACAAAGAUCAUGGGAGAAGGCAGAAAAUAAAU [SS2 M 37] | 12.5 | 20.6 |  | 
5 | AUAAAACAUGAGGAUCACCCAUGUAAAAAAGCAUGAGGAUAUAUAAAAAGAAAAAGAAGAAUAGAAGGCAUAGUAA [JR_SS001_Sub1222] | 71.4 | 52.1 |  | 
6 | AGAAAUAAAACACAGGAUAUCCAAAAGAAAACAUGAGGAUCACCCAUGUAAAAUAAAAUAAAAUGGGAGAAGGGUGAAAAUAAGA [Mat - Same State 2 - JL mod - D5] | 150 | 50.2 |  | 
7 | AACUAACAUGAGGAUCACCCAUGUUACAGCAGUUGAGGAUAUGUGGGUGAAAAUAGCAUGGCAGAAGGCGAGUGUA [SameState1 Malc#24] | 53.9 | 127 |  | 
8 | AAAAUAAAAUAAAAGGAUAUAAAAUAAAAAACAUGAGGAUCACCCAUGUGAAAACAUGAAAAAAAAAAGAAGGAAAAAUAAAAAA [SS2: 76 No MS2] | 21.3 | 31.6 |  | 
9 | AUAAAACAUGAGGAUCACCCAUGUAGAAAUAUGGGAGGAUAUACGAAGACGAAAGUCAAAGUAGAAGGCCUAAAAG [Mat - Same State 1 - Meechl mod - D115] | 26.5 | 83.6 |  | 
10 | AAAUAACAUGAGGAUCACCCAUGUGGGCUUAAGCAAGGAUAUGGGCACUCAAAAGUAGCGCCAGAAGGUGCAGUCG [Anrabitien] | 56.1 | 145 |  | 
11 | AUAUAUAUAAGGUAGGAUAUACUAAAGUAAACAUGAGGAUCACCCAUGUAAAGAAAGAAACUCAUGUAGAAGGACCAUAUAUAUA [Original: 77%, More Tesla, 1] | 21.3 | 99.9 |  | 
12 | AAAAGACAUGAGGAUCACCCAUGUCAAAACAUAGGAGGAUAUGUCGUGAAAAAAGACUUGGCAGAAGGCCUUUGUC [SS1 - 48] | 17.3 | 19.3 |  | 
13 | AACAAACAUGAGGAUCACCCAUGUCAAACAAACCAAGGAUAUGGGAAGCGAGACUCGCUACCAGAAGGUGGAAAUU [Edtigebe] | 43.8 | 176 |  | 
14 | AAAAAACAUGAGGAUCACCCAUGUAGAAACAUGGGAGGAUAUACGAAGACGAAAGUCAAAGUAGAAGGCCUAAGAG [Garnet 89] | 183 | 592 |  | 
15 | CGGAGACAUGAGGAUCACCCAUGUGAGAAGAGGCGAGGAUAUCGAAAGAAAGAAGAGAAACGAGAAGGCGCGAGCU [salish99-SS1-072] | 23.1 | 27.6 |  | 
16 | AAAAAACAUGAGGAUCACCCAUGUAAGGAUAUGCAAAACCCAUAUAAAAAGGGAAAAAGCAGAAGGUACAAAAA [Starry Exclusion 1.1 (wbt round 1 mod)] |  |  | 24.9 | 33.1
17 | AAAAAGUCAGGAUAUAGCAAAGGUCACGAAAGUGACAAAGGCUAGAAGGGACAUGAGGAUCACCCAUGUAAAAA [Fiskers Exclusion 4 D2] |  |  | 53 | 38.8
18 | AACAUGUUAGGAUAUCUAAGAAAAGAAAAGAAAGAAAAGAAAGAGAAGGAACAUGAGGAUCACCCAUGUAAGAA [EteRNA is fun!] |  |  | 30.1 | 22.1
